The numbers were not newly measured in article PMC10910070, which cites them from elsewhere.

The subject of the series is gliadin (wheat, commercial mixture) (wheat). The series can be described thus: not stated (cited value). The note with it: 5 mM Tris pH 7.4, 25 C; 300 uL AuNPs + 200 uL 40 nM aptamer + 200 uL gliadin, then 200 uL NaCl (40 mM in Methods, 37 mM in Fig. 2 legend), 900 uL final.

One may read the Kd as the equilibrium constant for the complex coming apart. As for “CCAGTCTCCCGTTTACCGCGCCTACACATGTCTGAATGCC [Apt-1]”, the Kd was 186 nM.
Turning to CTACACATGTCTGAATGCC [Apt-2], the Kd was 148 nM.
